Measurements: patent US8614103B2, “Compositions and methods for treating sphingosine-1-phosphate (S1P) related ocular diseases and conditions” (Lpath, Inc., priority 2006, dated 2013)

Tests used:
HUVECs = experiment: HUVEC tube formation on Matrigel; assay type: cell-based, human; settings: co-incubated with S1P; GF-reduced Matrigel
Experimental: Experiments were performed as described by Visentin et al. (Cancer Cell 2006 March; 9(3):225-38).

CNV lesions [1] = experiment: CNV animal model, murine vs humanized variants (Example 17); assay type: in vivo, mouse; settings: 0.5 ug intravitreal Day 0 and Day 6; 14 days post laser; vs saline
Experimental: The humanized antibody variants and the murine antibody were compared for their ability to inhibit neo-vascularization in the CNV animal model of AMD as shown in FIG. 13. […] Mice were sacrificed 14 days post laser surgery. Control mice were treated with aqueous buffer (PBS) or an isotype-matched non-specific antibody. Three of the humanized variants inhibited angiogenesis essentially equivalently to the murine antibody as assessed by measurement of CNV area. CNV lesion volumes are represented as means±SEM. […]
The morphometric and volumetric CNV lesions were measured as follows. […]
Captured digital images were evaluated morphometrically using ImageJ software (Research Services Branch, National Institutes of Health, Bethesda, Md.). Images were split into separate RGB channels for analysis of the red and green channels as follows: 1) a calibration for the specific objective and microscope was applied to set the pixel-to-length ratio; 2) a threshold was applied using the Otsu algorithm; 3) images will be made binary; 4) a region-of-interest (ROI) was outlined to include the entire lesion area; 5) a particle analysis was performed to quantify the pixel area above the threshold level within the ROI. […]

CNV lesions [2] = experiment: Murine laser-induced CNV model (Example 4); assay type: in vivo, mouse; settings: 0.5 μg
Experimental: Female C57BL6/J mice were subjected to laser-induced rupture of Bruch's membrane and administered either 0.5 μg of Sphingomab or an isotype-matched non-specific (NS) antibody diluted in 2 μl of physiological saline. Mice were sacrificed 14 and 28 days after laser rupture.
To induce CNV lesions, the pupils were dilated with ophthalmic tropicamide (0.5%) and phenylephrine (2.5%). A coverslip was placed on the eye. An Oculight GL 532 nm (Iridex Corporation, Mountain View, Calif.) coupled to a slit lamp set to deliver a 100 msec pulse at 150 mW with a 50 μm spot size was used to rupture Bruch's membrane in three quadrants of the right eye located approximately 50 μm from the optic disc at relative 9, 12 and 3 o'clock positions. The left eye served as an uninjured control in all cases. Any lesion not associated with a vapor bubble or lesions that became confluent were excluded from analysis. […]
To assess collagen deposition, the sclera-choroid-RPE complex was stained with Masson's Trichrome. […] Approximately 30 sections per lesion were evaluated. Quantitation of the volume of collagen deposition was calculated in the same manner as described for CNV lesion volume.
Captured digital images were evaluated morphometrically using ImageJ software (Research Services Branch, National Institutes of Health, Bethesda, Md.).

[3] = Stability after thermochallenge (TM); assay type: physicochemical; settings: thermochallenge of supernatants
Experimental: The humanized variants were tested for stability after challenge at high temperature. The approximate midpoints of the thermal unfolding transitions (TM) were determined for every humanized variant by subjecting the supernatants to temperatures ranging from 60 to 74° C. These temperatures were chosen based on the denaturation profile observed for the murine antibody molecule after thermochallenging between a broad range of temperatures between 50 and 80° C. The binding properties of each variant were determined before and after thermochallenge.

B1: LT1002: murine monoclonal antibody to S1P, IgG1 kappa, hybridoma clone 306D326.26 (antibody, listed as Mus sp., V domains shown)
VH: QAHLQQSDAELVKPGASVKISCKVSGFIFIDHTIHWMKQRPEQGLEWIGCISPRHDITKYNEMFRGKATLTADKSSTTAYIQVNSLTFEDSAVYFCARGGFYGSTIWFDFWGQGTTLTVS
VL: ETTVTQSPASLSMAIGEKVTIRCITTTDIDDDMNWFQQKPGEPPNLLISEGNILRPGVPSRFSSSGYGTDFLFTIENMLSEDVADYYCLQSDNLPFTFGSGTKLEIK
capillary-like structure (tube) formation (HUVECs): failed to form capillary-like structures
Percent inhibition of lesion size (CNV lesions [1]): approximately 80%
choroidal neovascularization (CNV lesions [2]; 14 and 28 days after laser-induced rupture of Bruch's membrane): dramatically attenuates
fibrosis associated with CNV lesion formation (CNV lesions [2]; 28 days after laser rupture, Masson's Trichrome): significantly reduces
TM (approximate midpoint of the thermal unfolding transition) [3]: 65 °C
